One experiment relates to IL-8 promoter. The experiment can be described thus: Dual luciferase assay, firefly luciferase under control of the IL-8 promoter, in Ovcar4 cells. Format: cell-based. Here is the method:
HEK-293 cells were grown in McCoy's 5A medium supplemented with 10% fetal bovine serum (FBS) and 1% penicillin/streptomycin (P/S). Ovcar4 cells were grown in RPMI medium with 10% FBS and 1% P/S. All cells were maintained at 37° C. and 90% humidity in a tissue culture incubator with 5% CO2 atmosphere. Cells were passaged every 2-4 days as they became confluent, using 0.25% trypsin. Where indicated, cells were transfected using 5 μL per well Lipofectamine 2000 (Life Technologies, Carlsbad, Calif.) in a total of 2 mL per well of OptiMEM low serum medium (Life Technologies). For proteasome inhibition studies, MG132 was added to cells in normal medium four hours after transfection and left on overnight. 5 μM was used for western studies, and 1 μM was used for luciferase assays. […]
Ovcar4 cells were plated at 50,000-75,000 cells per well, in 500 μL RPMI, in a 24 well plate and allowed to adhere overnight. […] The day after transfection, luciferase expression was quantified using the Dual Luciferase Assay kit (Promega, Madison, Wis.) according to the manufacturer instructions.
Western blots were quantified using GeneTools software. Data were graphed and analyzed in Microsoft Excel and GraphPad Prism 6, respectively. […] Luciferase assays were analyzed using one-way ANOVA with correction for multiple comparisons. […]

The target of experiment [1] is T1, TWIST1 (Homo sapiens, UniProt Q15672).
T1 construct: The cloning of TWIST1 into the pcDNA4-MycHis vector has been described previously [14]; expressed in transfected cells; host or cells: HEK-293
T1 sequence (Q15672 1-202): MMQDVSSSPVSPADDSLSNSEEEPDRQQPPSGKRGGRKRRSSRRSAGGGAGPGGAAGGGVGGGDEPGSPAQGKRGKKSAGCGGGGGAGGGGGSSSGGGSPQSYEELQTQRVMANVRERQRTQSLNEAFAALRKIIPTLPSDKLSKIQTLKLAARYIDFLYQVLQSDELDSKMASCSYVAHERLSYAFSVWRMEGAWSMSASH
Briefly: Cell fractionation and western blot of TWIST1 and GFP in HEK-293 cells. The class given is cell-based. Here is the method:
HEK-293 cells were grown in McCoy's 5A medium supplemented with 10% fetal bovine serum (FBS) and 1% penicillin/streptomycin (P/S). Ovcar4 cells were grown in RPMI medium with 10% FBS and 1% P/S. All cells were maintained at 37° C. and 90% humidity in a tissue culture incubator with 5% CO2 atmosphere. Cells were passaged every 2-4 days as they became confluent, using 0.25% trypsin. Where indicated, cells were transfected using 5 μL per well Lipofectamine 2000 (Life Technologies, Carlsbad, Calif.) in a total of 2 mL per well of OptiMEM low serum medium (Life Technologies). For proteasome inhibition studies, MG132 was added to cells in normal medium four hours after transfection and left on overnight. 5 μM was used for western studies, and 1 μM was used for luciferase assays.
(§1) In order to create a competitive inhibitor for TWIST1-RELA binding, the WR domain from TWIST1 was fused to GFP. To achieve this, PCR was used to amplify the final 63 nucleotides of the TWIST1 gene (including stop codon) and add 5′ XhoI and 3′ BamHI restriction sites. The PCR fragment and the pEGFP-C3 vector were subjected to XhoI-BamHI double digest (New England BioLabs, Ipswich, Mass.) and the two were ligated together. GFP lacking the WR domain was used as a control, and includes residues at the C-terminus encoded by the multiple cloning site of the vector. As a result, the molecular weights of the two GFP proteins are indistinguishable on a western blot. To achieve equal expression of GFP-WR compared to unmodified GFP, it was necessary to transfect cells with three-fold more GFP-WR plasmid versus GFP. A one to one ratio was sufficient for CoIP illustrated in FIG. 4C. […]
Protein was run on 4% stacking, 10% resolving polyacrylamide gels and transferred to PVDF membrane (GE Healthcare Bio-Sciences, Pittsburgh, Pa.) on a Trans-Blot SD Semi-Dry Transfer Cell (Bio-Rad, Hercules, Calif.). […] Protein was detected using FemtoGlow chemiluminescent substrate (Michigan Diagnostics, Royal Oak, Mich.) and the Pxi4 imager (Syngene, Frederick, Md.). […]
On the technique in general: Immunoblotting shows a protein as a band on a membrane.

For another experiment, the target named is T2, RELA (Homo sapiens, UniProt Q04206).
T2 construct: The wild type RELA gene was also cloned into pcDNA4-MycHis; expressed in transfected cells; host or cells: HEK-293
T2 sequence (Q04206 whole entry): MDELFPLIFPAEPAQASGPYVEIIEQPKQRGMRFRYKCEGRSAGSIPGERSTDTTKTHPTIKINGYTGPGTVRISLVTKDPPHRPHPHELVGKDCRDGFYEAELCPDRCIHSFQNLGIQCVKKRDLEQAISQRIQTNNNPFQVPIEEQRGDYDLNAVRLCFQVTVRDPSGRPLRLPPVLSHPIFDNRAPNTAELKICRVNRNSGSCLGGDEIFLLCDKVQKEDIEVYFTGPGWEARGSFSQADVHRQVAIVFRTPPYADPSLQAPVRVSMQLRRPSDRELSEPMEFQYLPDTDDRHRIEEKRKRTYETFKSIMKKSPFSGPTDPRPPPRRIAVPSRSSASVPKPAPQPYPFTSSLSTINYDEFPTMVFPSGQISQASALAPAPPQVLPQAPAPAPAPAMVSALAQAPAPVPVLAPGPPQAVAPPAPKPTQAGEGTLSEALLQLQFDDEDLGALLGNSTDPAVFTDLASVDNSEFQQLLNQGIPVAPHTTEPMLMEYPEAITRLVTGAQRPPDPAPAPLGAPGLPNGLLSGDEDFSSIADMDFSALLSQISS
Briefly: Co-immunoprecipitation with GFP pulldown in transfected HEK-293 cells. Format: binding. The settings on record: data not shown.
Description: as §1, with “blot.” for “blot. To achieve equal expression of GFP-WR compared to unmodified GFP, it was necessary to transfect cells with three-fold more GFP-WR plasmid versus GFP. A one to one ratio was sufficient for CoIP illustrated in FIG. 4C.”
(§2) HEK-293 cells were plated at 500,000 cells per well, in 2 mL normal medium, in a 6 well plate and allowed to adhere. […] Cell pellets were lysed in RIPA buffer, and protein concentration was determined by BCA Protein Assay (Thermo Fisher, Waltham, Mass.). […]
(§3) Protein was run on 4% stacking, 10% resolving polyacrylamide gels and transferred to PVDF membrane (GE Healthcare Bio-Sciences, Pittsburgh, Pa.) on a Trans-Blot SD Semi-Dry Transfer Cell (Bio-Rad, Hercules, Calif.). […] Protein was detected using FemtoGlow chemiluminescent substrate (Michigan Diagnostics, Royal Oak, Mich.) and the Pxi4 imager (Syngene, Frederick, Md.). Quantitation was performed using the accompanying GeneTools software.

Experiment [2] concerns the target T1, TWIST1. Described as above. Format: binding. The conditions noted are these: increasing GFP-WR expression.
Description: as §1, with “blot.” for “blot. To achieve equal expression of GFP-WR compared to unmodified GFP, it was necessary to transfect cells with three-fold more GFP-WR plasmid versus GFP. A one to one ratio was sufficient for CoIP illustrated in FIG. 4C.”
as §2, §3

For the next experiment, the target named is T3, TWIST1-RELA binding (Homo sapiens, UniProt Q15672).
T3 construct: The cloning of TWIST1 into the pcDNA4-MycHis vector has been described previously [14]; The wild type RELA gene was also cloned into pcDNA4-MycHis; expressed in transfected cells; host or cells: HEK-293
T3 sequence (Q15672 1-202): T1 sequence (Q15672 1-202)
Briefly: Co-immunoprecipitation with RELA pulldown in transfected HEK-293 cells. The conditions noted are these: increasing GFP-WR expression, total GFP held constant with control GFP.
Description: as §1, with “blot.” for “blot. To achieve equal expression of GFP-WR compared to unmodified GFP, it was necessary to transfect cells with three-fold more GFP-WR plasmid versus GFP. A one to one ratio was sufficient for CoIP illustrated in FIG. 4C.”
as §2, §3

“Also recorded” adds a separate entry of the source. Ends that are not written are not given here. Peptide text beside a SMILES is read from it. * marks the point of attachment. Cbz = O=C(OCc1ccccc1)*

As for `CC(C)C[C@@H](C=O)NC(=O)[C@H](CC(C)C)NC(=O)[C@H](CC(C)C)NC(=O)OCc1ccccc1` [MG132, reference compound] (Cbz-Leu-Leu-Leu-aldehyde), the “IL-8 promoter activity (FFluc expression) after proteasome inhibition” value with IL-8 promoter (MG132 1 μM overnight, cells expressing GFP-WR) is “increases; also recorded: partial rescue”. Moreover, at TWIST1 [1] (MG132 5 μM overnight, cells expressing GFP-WR), the “levels of TWIST1 and GFP in the cytoplasmic fraction after proteasome inhibition” value is “partially rescue”.
Consider “GFP-WR: fusion protein of GFP and the 20 amino acid WR domain of TWIST1, expressed from pEGFP-C3 as competitive inhibitor of TWIST1-RELA binding (LELSYAFSVWRMEGAWSMSASH; also: fused to GFP)”, for which the “RELA co-precipitated with GFP” value with RELA is recorded as “only trace amounts”. Moreover, the “TWIST1 co-precipitated with GFP” value with TWIST1 [2] was “more TWIST1 co-precipitated; also recorded: co-precipitated to a greater degree”. Further, the “IL-8 promoter driven FFluc expression (normalized to Renilla luciferase)” value with IL-8 promoter (increasing dose of GFP-WR, Ovcar4 cells co-transfected with TWIST1 and RELA) is “dose dependent drop; also recorded: dose-dependent reduction”. Moreover, the “proportion of TWIST1 signal found in the cytoplasmic fraction” value in the experiment with TWIST1 [1] (increasing GFP-WR transfection, western blot of fractionated cells) is “slight increase; also recorded: mild increase”. For the same compound, the “absolute levels of TWIST1 and GFP in cytoplasmic and nuclear fractions” value with TWIST1 [1] (increasing amount of GFP-WR transfected) is reported as “decreased”. Further, in the experiment with TWIST1-RELA binding, the “TWIST1 co-precipitated with RELA (TWIST1-RELA binding)” value is recorded as “reduced in a dose-dependent manner; also recorded: reduced in a dose dependent fashion”.

The record behind these values is US10646540B2, “Peptide inhibitors of twist” (City of Hope, priority 2016, dated 2020).
